Data taken from patent US6759384 (AVENTIS PHARMACEUTICALS, dated 2004).
Starred links: 1 amine or outer side, 2 acyl side, 3 side chain; linkers in the order of their positions; H or OH if unused. Non-standard residues stand in square brackets, D forms with d. No end group written: not given here. *: point of attachment. (iBu)F(pNH2) = N-alpha-isobutyl-4-amino-phenylalanine, CC(C)CN([C@@H](Cc1ccc(N[*:3])cc1)C(=O)[*:2])[*:1]; (iBu)Phe(4-NH2) = N-isobutyl-4-amino-L-phenylalanine, CC(C)CN([C@@H](Cc1ccc(N[*:3])cc1)C(=O)[*:2])[*:1]; (iBu)Phe(4-CN) = N-isobutyl-4-cyano-L-phenylalanine, CC(C)CN([C@@H](Cc1ccc(C#N)cc1)C(=O)[*:2])[*:1]; Phe(3-I,4-NH2) = 4-amino-3-iodo-L-phenylalanine, O=C([C@H](Cc1ccc(N[*:3])c(I)c1)N[*:1])[*:2]; (Chx-CH2)Y = N-(cyclohexylmethyl)-Tyr, O=C([C@H](Cc1ccc(O[*:3])cc1)N(CC1CCCCC1)[*:1])[*:2]; (iBu)Y = N-alpha-isobutyl-tyrosine, CC(C)CN([C@@H](Cc1ccc(O[*:3])cc1)C(=O)[*:2])[*:1]; 4‑isoquinolinoyl = 4-isoquinolinoyl N-terminal acyl group, O=C(c1cncc2ccccc12)*; dpAph = D-4-amidinophenylalanine, N=C(N)c1ccc(C[C@@H](N[*:1])C(=O)[*:2])cc1; Phe(4-amidino) = N=C(N)c1ccc(C[C@H](N)C(=O)O)cc1; Phe(4-CONH2) = NC(=O)c1ccc(C[C@H](N)C(=O)O)cc1; 2‑pyridonyl = 2-pyridonyl N-terminal group; Phe(4-NH2) = Nc1ccc(C[C@H](N)C(=O)O)cc1; 2‑naphthylmethyl = c1ccc2cc(C*)ccc2c1; Quinaldoyl = O=C(c1ccc2ccccc2n1)*; NMeL = CN[C@@H](CC(C)C)C(=O)O; Chg = N[C@H](C(=O)O)C1CCCCC1; Nicotinoyl = O=C(c1cccnc1)*; Tfa = O=C(C(F)(F)F)*; Bz = O=C(c1ccccc1)*

B1: Ac-Y-Chg-R-L-P-NH2 (peptide)
peptide: Ac-Y[Chg]RLP-NH2
SMILES: CC(=O)N[C@@H](Cc1ccc(O)cc1)C(=O)N[C@H](C(=O)N[C@@H](CCCNC(=N)N)C(=O)N[C@@H](CC(C)C)C(=O)N1CCC[C@H]1C(N)=O)C1CCCCC1
notes: also called Ac-Tyr-Chg-Arg-Leu-Pro-NH2
B2: Tfa-(iBu)Y-Chg-R-L-P-NH2 (peptide)
peptide: Tfa-[(iBu)Y][Chg]RLP-NH2
notes: also called Tfa-(iBu)Tyr-Chg-Arg-Leu-Pro-NH2
B3: Ac-(Chx-CH2)Y-I-R-L-P-NH2 (peptide)
peptide: XIRLP
modifications: N-term Ac; N-(Chx-CH2) on Y1; C-term NH2
notes: also called Ac-(Chx-CH2)Tyr-Ile-Arg-Leu-Pro-NH2; Ac-(Chx-CH2)-Tyr-Ile-Arg-Leu-Pro-NH2
B4: Ac-pAph-I-R-L-P-NH2 (peptide)
peptide: Ac-[Phe(4-amidino)]IRLP-NH2
SMILES: CC[C@H](C)[C@H](NC(=O)[C@H](Cc1ccc(C(=N)N)cc1)NC(C)=O)C(=O)N[C@@H](CCCNC(=N)N)C(=O)N[C@@H](CC(C)C)C(=O)N1CCC[C@H]1C(N)=O
B5: Tfa-(iBu)F(pNH2)-Chg-R-L-P-NH2 (peptide)
peptide: Tfa-[(iBu)F(pNH2)][Chg]RLP-NH2
SMILES: CC(C)C[C@H](NC(=O)[C@H](CCCNC(=N)N)NC(=O)[C@@H](NC(=O)[C@H](Cc1ccc(N)cc1)N(CC(C)C)C(=O)C(F)(F)F)C1CCCCC1)C(=O)N1CCC[C@H]1C(N)=O
notes: also called CF3C(O)-(iBu)Phe(NH2)-Chg-Arg-Leu-Pro-NH2
B6: 5-Bzim-CO-F(pNH2)-Chg-R-L-P-NH2 (peptide)
peptide: {5‑benzimidazolecarbonyl}-[Phe(4-NH2)][Chg]RLP-NH2
notes: also called (5-benzimidazoyl)-Phe(NH2)-Chg-Arg-Leu-Pro-NH2
B7: Ac-F(pNH2)-Chg-R-L-P-NH2 (peptide)
peptide: Ac-[Phe(4-NH2)][Chg]RLP-NH2
SMILES: CC(=O)N[C@@H](Cc1ccc(N)cc1)C(=O)N[C@H](C(=O)N[C@@H](CCCNC(=N)N)C(=O)N[C@@H](CC(C)C)C(=O)N1CCC[C@H]1C(N)=O)C1CCCCC1
notes: also called Ac-Phe(pNH2)-Chg-Arg-Leu-Pro-NH2
B8: Ac-F(pCONH2)-Chg-R-L-P-NH2 (peptide)
peptide: Ac-[Phe(4-CONH2)][Chg]RLP-NH2
SMILES: CC(=O)N[C@@H](Cc1ccc(C(N)=O)cc1)C(=O)N[C@H](C(=O)N[C@@H](CCCNC(=N)N)C(=O)N[C@@H](CC(C)C)C(=O)N1CCC[C@H]1C(N)=O)C1CCCCC1
notes: also called Ac-Phe(pCONH2)-Chg-R-L-P-NH2; Ac-Phe(p-CONH2)-Chg-Arg-Leu-Pro-NH2
B9: Ac-W-Chg-R-L-P-NH2 (peptide)
peptide: Ac-W[Chg]RLP-NH2
SMILES: CC(=O)N[C@@H](Cc1c[nH]c2ccccc12)C(=O)N[C@H](C(=O)N[C@@H](CCCNC(=N)N)C(=O)N[C@@H](CC(C)C)C(=O)N1CCC[C@H]1C(N)=O)C1CCCCC1
notes: also called Ac-Trp-Chg-Arg-Leu-Pro-NH2
B10: Ac-(2-Me-nPentyl)Y-I-R-L-P-NH2 (peptide)
peptide: XIRLP
modifications: N-term Ac; N-(2-Me-nPentyl) on Y1; C-term NH2
notes: also called Ac-(CH3CH2CH2CH(CH3)CH2)-Y-I-R-L-P-NH2
B11: Ac-(iBu)F(pNH2)-Chg-R-L-P-NH2 (peptide)
peptide: Ac-[(iBu)Phe(4-NH2)][Chg]RLP-NH2
notes: also called Ac-(iBu)-Phe(pNH2)-Chg-Arg-Leu-Pro-NH2
B12: Ac-Phe(pNH2)-Chg-Arg-(Me)Leu-Pro-NH2 (peptide)
peptide: Ac-[Phe(4-NH2)][Chg]R[NMeL]P-NH2
SMILES: CC(=O)N[C@@H](Cc1ccc(N)cc1)C(=O)N[C@H](C(=O)N[C@@H](CCCNC(=N)N)C(=O)N(C)[C@@H](CC(C)C)C(=O)N1CCC[C@H]1C(N)=O)C1CCCCC1
B13: (Benzoyl)-Phe(pNH2)-Chg-Arg-Leu-Pro-NH2 (peptide)
peptide: Bz-[Phe(4-NH2)][Chg]RLP-NH2
SMILES: CC(C)C[C@H](NC(=O)[C@H](CCCNC(=N)N)NC(=O)[C@@H](NC(=O)[C@H](Cc1ccc(N)cc1)NC(=O)c1ccccc1)C1CCCCC1)C(=O)N1CCC[C@H]1C(N)=O
notes: also called Bz-F(pNH2)-Chg-R-L-P-NH2
B14: Ac-Phe(3I,4NH2)-Chg-Arg-Leu-Pro-NH2 (peptide)
peptide: Ac-[Phe(3-I,4-NH2)][Chg]RLP-NH2
SMILES: CC(=O)N[C@@H](Cc1ccc(N)c(I)c1)C(=O)N[C@H](C(=O)N[C@@H](CCCNC(=N)N)C(=O)N[C@@H](CC(C)C)C(=O)N1CCC[C@H]1C(N)=O)C1CCCCC1
B15: (2-quinolinoyl)-Phe(NH2)-Chg-Arg-Leu-Pro-NH2 (peptide)
peptide: Quinaldoyl-F[Chg]RLP-NH2
modifications: not fully specified (residue 1); printed as (2-quinolinoyl)-Phe(NH2)-Chg-Arg-Leu-Pro-NH2
B16: (2-naphythl-CH2)Phe(pNH2)-Chg-Arg-Leu-Pro-NH2 (peptide)
peptide: {2‑naphthylmethyl}-[Phe(4-NH2)][Chg]RLP-NH2
SMILES: CC(C)C[C@H](NC(=O)[C@H](CCCNC(=N)N)NC(=O)[C@@H](NC(=O)[C@H](Cc1ccc(N)cc1)NCc1ccc2ccccc2c1)C1CCCCC1)C(=O)N1CCC[C@H]1C(N)=O
B17: (3-pyridoyl)-Phe(pNH2)-Chg-Arg-Leu-Pro-NH2 (peptide)
peptide: Nicotinoyl-[Phe(4-NH2)][Chg]RLP-NH2
SMILES: CC(C)C[C@H](NC(=O)[C@H](CCCNC(=N)N)NC(=O)[C@@H](NC(=O)[C@H](Cc1ccc(N)cc1)NC(=O)c1cccnc1)C1CCCCC1)C(=O)N1CCC[C@H]1C(N)=O
B18: (4-isoquinolinoyl)-Phe(pNH2)-Chg-Arg-Leu-Pro-NH2 (peptide)
peptide: {4‑isoquinolinoyl}-[Phe(4-NH2)][Chg]RLP-NH2
SMILES: CC(C)C[C@H](NC(=O)[C@H](CCCNC(=N)N)NC(=O)[C@@H](NC(=O)[C@H](Cc1ccc(N)cc1)NC(=O)c1cncc2ccccc12)C1CCCCC1)C(=O)N1CCC[C@H]1C(N)=O

Molecular target: T1, human factor Xa (Enzyme Research Laboratories, Inc.) (human, UniProt P00742 41-179; P00742 235-488, limits assumed)
Test: cell-based or functional assay

T1 sequence (P00742 41-179 limits assumed, chain 1 of 2): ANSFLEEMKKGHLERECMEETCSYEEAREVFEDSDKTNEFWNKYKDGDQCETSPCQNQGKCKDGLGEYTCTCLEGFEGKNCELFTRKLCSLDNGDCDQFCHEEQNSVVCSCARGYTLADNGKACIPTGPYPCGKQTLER
T1 sequence (P00742 235-488 limits assumed, chain 2 of 2): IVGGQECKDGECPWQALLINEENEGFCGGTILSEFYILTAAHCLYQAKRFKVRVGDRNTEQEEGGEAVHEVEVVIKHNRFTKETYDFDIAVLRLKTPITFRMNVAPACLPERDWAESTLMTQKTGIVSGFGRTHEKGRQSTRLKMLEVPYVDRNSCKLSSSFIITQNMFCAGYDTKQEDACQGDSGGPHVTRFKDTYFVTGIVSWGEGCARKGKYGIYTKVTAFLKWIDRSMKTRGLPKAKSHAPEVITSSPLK

Binder | EC50 (concentration giving 50% inhibition of coagulation), in vitro dilute prothrombin time assay, pooled human plasma [µM]
B1 | 0.225
B2 | 0.3

Molecular target: T1, human factor Xa (Enzyme Research …)
Test: chromogenic FXa inhibition
Outline: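 Human FXa (0.5 nM) preincubated 10 min with inhibitor in TBS-P (pH 7.8, 200 mM NaCl, PEG-8000), then S-2765 added (140 μM). Initial hydrolysis rate read at 405 nm, 25° C.; IC50 by linear regression of relative rate vs log concentration.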

Binder | Ki [µM]
B3 | < 100
XIRLP (N-term Ac; N-(Cyclopropyl-CH2) on Y1; C-term NH2) [Ac-(Cyclopropyl-CH2)Y-I-R-L-P-NH2] | < 100
XIRLP (N-term Ac; N-(Et-CH═C(CH3)-CH2) on Y1; Y1=Y(SO3H); C-term NH2) [Ac-(Et-CH═C(CH3)-CH2)Y(SO3H)-I-R-L-P-NH2] | < 100
B4 | < 100
B5 | < 100
XIRLP (N-term Ac; N-(Et-CH═C(CH3)-CH2) on Y1; C-term NH2) [Ac-(Et-CH═C(CH3)-CH2)Y-I-R-L-P-NH2] | < 100
XIRLP (N-term Tfa; N-(iBu) on Y1; C-term NH2) [Tfa-(iBu)Y-I-R-L-P-NH2] | < 100
B6 | < 100
XIRLP (N-term Ac; N-(Cyclopropyl-CH2) on Y1; Y1=Y(SO3H); C-term NH2) [Ac-(Cyclopropyl-CH2)Y(SO3H)-I-R-L-P-NH2] | < 100
B7 | < 100
XIRLP (N-term Ac; N-(3,5,5-Me-3-nHexyl) on Y1; C-term NH2) [Ac-(3,5,5-Me-3-nHexyl)Y-I-R-L-P-NH2] | < 100
B8 | < 100
B1 | < 100
[dY][Chg]RLP-NH2 (also called D-Tyr-Chg-Arg-Leu-Pro-NH2) [y-Chg-R-L-P-NH2] | < 100
B9 | < 100
Tfa-Y[Chg]RLP-NH2 [Tfa-Y-Chg-R-L-P-NH2] | < 100
B2 | < 100
XIRLP (N-term Ac; N-(3,3-DiMe-nPentyl) on Y1; Y1=Y(SO3H); C-term NH2) [Ac-(3,3-DiMe-nPentyl)Y(SO3H)-I-R-L-P-NH2] | < 100
B10 | < 100
XIRLP (N-term Ac; N-(2-Me-nBu) on Y1; C-term NH2) [Ac-(2-Me-nBu)Y-I-R-L-P-NH2] | < 100
B11 | < 100

Molecular target: T1, human factor Xa (Enzyme Research …)
Test: chromogenic FXa inhibition
Remark: another data set of the same source
Protocol: TBS-P buffer (50 mM Tris-Cl, pH 7.8, 200 mM NaCl, 0.05% (w/v) PEG-8000, 0.02% (w/v) NaN_3) was used for this assay. The IC$50$ was determined by combining in appropriate wells of a Costar half-area microtiter plate 25 μl human factor Xa (Enzyme Research Laboratories, Inc.; South Bend Ind.) in TBS-P; 40 μl 10% (v/v) DMSO in TBS-P (uninhibited control) or various concentrations of a peptide to be tested diluted in 10% (v/v) DMSO in TBS-P; and substrate S-2765 (Nα-benzyloxycarbonyl-D-Arg-Gly-L-Arg-p-nitroanilide; Kabi Pharmacia, Inc.; Franklin Ohio) in TBS-P.
The assays were performed by pre-incubating the peptide inhibitor plus enzyme for 10 min, then the assay was initiated by adding substrate to obtain a final volume of 100 μl. The initial velocity of chromogenic substrate hydrolysis was measured by the change in absorbance at 405 nm using a Bio-tek Instruments kinetic plate reader (Ceres UV900HDi) at 25° C. during the linear portion of the time course (usually 1–5 min after addition of substrate). The concentration of inhibitor that caused a 50% decrease in the rate of substrate hydrolysis was predicted by linear regression after plotting the relative rates of hydrolysis (compared to the uninhibited control) versus the log of the peptide concentration. The enzyme concentration was 0.5 nM and substrate concentration was 140 μM.

Binder | Ki [µM]
B3 | < 100
Ac-[dpAph]IRLP-NH2 [Ac-D-pAph-Ile-Arg-Leu-Pro-NH2] | < 100
B12 | < 100
B13 | < 100
B14 | < 100
{2‑methylbenzyl}-[Phe(4-NH2)][Chg]RLP-NH2 [(2-methylbenzyl)-Phe(pNH2)-Chg-Arg-Leu-Pro-NH2] | < 100
{2‑pyridonyl}-[Phe(4-NH2)][Chg]RLP-NH2 [(2-pyridonyl)Phe(pNH2)Chg-Arg-Leu-Pro-NH2] | < 100
B4 | < 100
B15 | < 100
B5 | < 100
XIRLP (N-term Tfa; N-(iBu) on Y1; C-term NH2) [Tfa-(iBu)Y-I-R-L-P-NH2] | < 100
B6 | < 100
B7 | < 100
B16 | < 100
{2‑naphthylsulfonyl}-[Phe(4-NH2)][Chg]RLP-NH2 [(2-naphthylsulfonyl)-Phe(pNH2)-Chg-Arg-Leu-Pro-NH2] | < 100
Ac-[(iBu)Phe(4-CN)][Chg]RLP-NH2 [Ac-(iBu)Phe(pCN)-Chg-Arg-Leu-Pro-NH2] | < 100
B8 | < 100
B1 | < 100
[dY][Chg]RLP-NH2 (also called D-Tyr-Chg-Arg-Leu-Pro-NH2) [y-Chg-R-L-P-NH2] | < 100
B9 | < 100
Tfa-Y[Chg]RLP-NH2 [Tfa-Y-Chg-R-L-P-NH2] | < 100
Ac-[(Chx-CH2)Y][Chg]RLP-NH2 [Ac-(Chx-CH2)Tyr-Chg-Arg-Leu-Pro-NH2] | < 100
B10 | < 100
B17 | < 100
XIRLP (N-term Ac; N-(2-Me-nBu) on Y1; C-term NH2) [Ac-(2-Me-nBu)Y-I-R-L-P-NH2] | < 100
B11 | < 100
B18 | < 100
